Data as given in the supplement of paper PMC9112550, “Optimization of the antimicrobial peptide Bac7 by deep mutational scanning” (BMC Biology, 2022).

Test system: Escherichia coli TOP10
Assay: shrunken log2 fold change of peptide-encoding DNA abundance (4.5 h post-induction vs induction); higher = less antimicrobial activity (less host growth inhibition)
Details: time post-induction: 4.5 h; library: site-saturation at positions 5, 18, 19, 20
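Also: peptides expressed intracellularly from a pBAD plasmid library in pooled LB shake-flask culture, induced with 0.3% L-arabinose, DNA abundance read by NGS, three biological replicates, DESeq2 with apeglm shrinkage.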

Row | Sequence | shrunken log2 fold change
1 | RRIRERPPRLPRPRPRPMCTPRP | 0.107
2 | RRIRERPPRLPRPRPRPFFTPRP | -0.106
3 | RRIRMRPPRLPRPRPRPMFSPRP | -0.125
4 | RRIRIRPPRLPRPRPRPRWWPRP | 0.655
5 | RRIRMRPPRLPRPRPRPWFFPRP | -0.0229
6 | RRIRSRPPRLPRPRPRPTQCPRP | 0.23
7 | RRIRDRPPRLPRPRPRPDMAPRP | 0.219
8 | RRIRRRPPRLPRPRPRPKFTPRP | -0.176
9 | RRIRTRPPRLPRPRPRPMFDPRP | -0.0585
10 | RRIRARPPRLPRPRPRPKWLPRP | 0.234
11 | RRIRGRPPRLPRPRPRPIWGPRP | 0.128
12 | RRIRPRPPRLPRPRPRPLCVPRP | -0.214
13 | RRIRKRPPRLPRPRPRPEIMPRP | 1.31
14 | RRIRSRPPRLPRPRPRPPVGPRP | 0.457
15 | RRIRSRPPRLPRPRPRPEWVPRP | 0.146
16 | RRIRGRPPRLPRPRPRPIHYPRP | -0.242
17 | RRIRWRPPRLPRPRPRPRSGPRP | 0.345
18 | RRIRWRPPRLPRPRPRPEDEPRP | 0.0692
19 | RRIRPRPPRLPRPRPRPPNCPRP | 0.215
20 | RRIRGRPPRLPRPRPRPAREPRP | 0.38
21 | RRIRQRPPRLPRPRPRPGSAPRP | 0.104
22 | RRIRMRPPRLPRPRPRPKYNPRP | -0.446
23 | RRIRVRPPRLPRPRPRPGYTPRP | -0.208
24 | RRIRERPPRLPRPRPRPRMEPRP | -0.00684
25 | RRIRNRPPRLPRPRPRPIGGPRP | -0.00925

Row | Sequence | shrunken log2 fold change
26 | RRIRSRPPRLPRPRPRPSHWPRP | 0.337
27 | RRIRDRPPRLPRPRPRPDCGPRP | 0.315
28 | RRIRCRPPRLPRPRPRPNWQPRP | -0.145
29 | RRIRHRPPRLPRPRPRPVLFPRP | -0.0987
30 | RRIRTRPPRLPRPRPRPNTDPRP | -0.615
31 | RRIRKRPPRLPRPRPRPSMHPRP | 0.401
32 | RRIRLRPPRLPRPRPRPCIWPRP | -0.21
33 | RRIRIRPPRLPRPRPRPWGNPRP | -0.803
34 | RRIRGRPPRLPRPRPRPKDAPRP | 0.432
35 | RRIRKRPPRLPRPRPRPIEPPRP | 0.0245
36 | RRIRSRPPRLPRPRPRPLDNPRP | -0.339
37 | RRIRARPPRLPRPRPRPGWIPRP | 0.161
38 | RRIRVRPPRLPRPRPRPSKKPRP | -0.0165
39 | RRIRQRPPRLPRPRPRPAQTPRP | 0.13
40 | RRIRYRPPRLPRPRPRPESNPRP | -0.23
41 | RRIRFRPPRLPRPRPRPNHCPRP | -0.0425
42 | RRIRWRPPRLPRPRPRPKCIPRP | -0.217
43 | RRIRTRPPRLPRPRPRPRKFPRP | 0.0711
44 | RRIRGRPPRLPRPRPRPNWCPRP | -0.0123
45 | RRIRHRPPRLPRPRPRPQYWPRP | -0.806
46 | RRIRMRPPRLPRPRPRPKGWPRP | 1.75
47 | RRIRLRPPRLPRPRPRPNSVPRP | -0.11
48 | RRIRFRPPRLPRPRPRPQHIPRP | -0.51
49 | RRIRGRPPRLPRPRPRPHGKPRP | 0.513
50 | RRIRLRPPRLPRPRPRPMCYPRP | -0.294

Row | Sequence | shrunken log2 fold change
51 | RRIRPRPPRLPRPRPRPETSPRP | 0.328
52 | RRIRERPPRLPRPRPRPACTPRP | -0.224
53 | RRIRYRPPRLPRPRPRPKSHPRP | 0.49
54 | RRIRNRPPRLPRPRPRPFNGPRP | -0.0926
55 | RRIRPRPPRLPRPRPRPGRCPRP | 0.442
56 | RRIRFRPPRLPRPRPRPQNVPRP | -0.16
57 | RRIRNRPPRLPRPRPRPRYQPRP | -0.19
58 | RRIRLRPPRLPRPRPRPKVTPRP | -0.00182
59 | RRIRDRPPRLPRPRPRPILKPRP | 0.0239
60 | RRIRVRPPRLPRPRPRPYEAPRP | -0.157
61 | RRIRYRPPRLPRPRPRPWTQPRP | -0.343
62 | RRIRIRPPRLPRPRPRPWVFPRP | -0.397
63 | RRIRARPPRLPRPRPRPCKCPRP | -0.0835
64 | RRIRDRPPRLPRPRPRPCWIPRP | -0.255
65 | RRIRLRPPRLPRPRPRPPDEPRP | 0.264
66 | RRIRVRPPRLPRPRPRPNYHPRP | -0.489
67 | RRIRDRPPRLPRPRPRPHNAPRP | -0.0997
68 | RRIRGRPPRLPRPRPRPYWAPRP | 0.211
69 | RRIRFRPPRLPRPRPRPWSSPRP | 0.0276
70 | RRIRQRPPRLPRPRPRPYWSPRP | -0.117
71 | RRIRRRPPRLPRPRPRPCCEPRP | 0.122
72 | RRIRCRPPRLPRPRPRPIFTPRP | -0.48
73 | RRIRHRPPRLPRPRPRPDKYPRP | -0.146
74 | RRIRERPPRLPRPRPRPGAHPRP | 0.0368
75 | RRIRKRPPRLPRPRPRPFCTPRP | -0.0968

Row | Sequence | shrunken log2 fold change
76 | RRIRHRPPRLPRPRPRPIPMPRP | -0.0582
77 | RRIRFRPPRLPRPRPRPIAVPRP | -0.116
78 | RRIRHRPPRLPRPRPRPNRSPRP | -0.413
79 | RRIRKRPPRLPRPRPRPCILPRP | -0.283
80 | RRIRWRPPRLPRPRPRPYNWPRP | -1.06
81 | RRIRNRPPRLPRPRPRPAWFPRP | 0.294
82 | RRIRNRPPRLPRPRPRPTDCPRP | -0.484
83 | RRIRRRPPRLPRPRPRPIQAPRP | -0.0046
84 | RRIRQRPPRLPRPRPRPYWWPRP | -0.143
85 | RRIRGRPPRLPRPRPRPAQCPRP | 0.471
86 | RRIRMRPPRLPRPRPRPKILPRP | 0.289
87 | RRIRPRPPRLPRPRPRPYSFPRP | -0.796
88 | RRIRNRPPRLPRPRPRPLKEPRP | 0.00854
89 | RRIRFRPPRLPRPRPRPTKPPRP | -0.00249
90 | RRIRVRPPRLPRPRPRPLRIPRP | 0.0616
91 | RRIRHRPPRLPRPRPRPWPRPRP | 0.166
92 | RRIRWRPPRLPRPRPRPRVVPRP | 0.655
93 | RRIRYRPPRLPRPRPRPNRSPRP | -0.496
94 | RRIRDRPPRLPRPRPRPMNMPRP | -0.308
95 | RRIRWRPPRLPRPRPRPLHDPRP | 0.387
96 | RRIRFRPPRLPRPRPRPGDEPRP | 0.0387
97 | RRIRMRPPRLPRPRPRPVFCPRP | 0.388
98 | RRIRPRPPRLPRPRPRPCKRPRP | -0.0941
99 | RRIRSRPPRLPRPRPRPDFRPRP | -0.0983
100 | RRIRQRPPRLPRPRPRPWTIPRP | -0.142

Row | Sequence | shrunken log2 fold change
101 | RRIRARPPRLPRPRPRPHVSPRP | 0.0459
102 | RRIRRRPPRLPRPRPRPLIYPRP | 0.431
103 | RRIRRRPPRLPRPRPRPYYDPRP | -1.02
104 | RRIRTRPPRLPRPRPRPVNDPRP | 0.0249
105 | RRIRFRPPRLPRPRPRPLELPRP | 0.0344
106 | RRIRQRPPRLPRPRPRPLMRPRP | 0.345
107 | RRIRFRPPRLPRPRPRPHMDPRP | -1.29
108 | RRIRDRPPRLPRPRPRPFHHPRP | -0.886
109 | RRIRTRPPRLPRPRPRPATNPRP | -0.0241
110 | RRIRARPPRLPRPRPRPMEGPRP | 0.667
111 | RRIRFRPPRLPRPRPRPKQLPRP | -0.123
112 | RRIRFRPPRLPRPRPRPIGRPRP | 0.00988
113 | RRIRPRPPRLPRPRPRPIGMPRP | -0.232
114 | RRIRDRPPRLPRPRPRPSFRPRP | -0.198
115 | RRIRFRPPRLPRPRPRPYEQPRP | 0.00332
116 | RRIRKRPPRLPRPRPRPAGEPRP | 0.0321
117 | RRIRKRPPRLPRPRPRPEVAPRP | 1.9
118 | RRIRWRPPRLPRPRPRPMGDPRP | 0.676
119 | RRIRPRPPRLPRPRPRPWIKPRP | -0.0265
120 | RRIRMRPPRLPRPRPRPRNCPRP | 0.0629
121 | RRIRYRPPRLPRPRPRPSLTPRP | -0.628
122 | RRIRHRPPRLPRPRPRPDMMPRP | -0.21
123 | RRIRLRPPRLPRPRPRPDIDPRP | 0.0249
124 | RRIRKRPPRLPRPRPRPIVLPRP | -0.299
125 | RRIRLRPPRLPRPRPRPMHAPRP | 0.12

Row | Sequence | shrunken log2 fold change
126 | RRIRNRPPRLPRPRPRPHEKPRP | -0.0437
127 | RRIRERPPRLPRPRPRPHDLPRP | -0.343
128 | RRIRTRPPRLPRPRPRPKGWPRP | 0.414
129 | RRIRIRPPRLPRPRPRPQLQPRP | -0.0769
130 | RRIRKRPPRLPRPRPRPQISPRP | -0.0814
131 | RRIRFRPPRLPRPRPRPQGHPRP | 0.0395
132 | RRIRNRPPRLPRPRPRPGPWPRP | 0.0802
133 | RRIRQRPPRLPRPRPRPECSPRP | -0.0561
134 | RRIRARPPRLPRPRPRPTPLPRP | 0.601
135 | RRIRLRPPRLPRPRPRPSHNPRP | -0.735
136 | RRIRYRPPRLPRPRPRPIWAPRP | -0.089
137 | RRIRVRPPRLPRPRPRPTMSPRP | -0.194
138 | RRIRLRPPRLPRPRPRPTKHPRP | -0.14
139 | RRIRMRPPRLPRPRPRPIDDPRP | -0.0846
140 | RRIRYRPPRLPRPRPRPWTWPRP | -0.106
141 | RRIRMRPPRLPRPRPRPRDTPRP | 0.964
142 | RRIRFRPPRLPRPRPRPPNMPRP | -0.0513
143 | RRIRDRPPRLPRPRPRPPHHPRP | -0.0964
144 | RRIRTRPPRLPRPRPRPLRMPRP | -0.0962
145 | RRIRWRPPRLPRPRPRPCGGPRP | 0.123
146 | RRIRCRPPRLPRPRPRPTKDPRP | -0.489
147 | RRIRNRPPRLPRPRPRPPWHPRP | 0.129
148 | RRIRIRPPRLPRPRPRPYYLPRP | -0.423
149 | RRIRIRPPRLPRPRPRPSHSPRP | -1.02
150 | RRIRQRPPRLPRPRPRPEIWPRP | 0.618
